# Measured values as given in patent publication US20210253725A1 (BIONTECH, published 2021).
# Changes are numbered by the printed parent chain. Numbers in names are those of the source.
# T1: CD27 expressed on the cell surface (HT1080_CD27 cells) (human, UniProt P26842 20-260)
# T1 sequence (looked up): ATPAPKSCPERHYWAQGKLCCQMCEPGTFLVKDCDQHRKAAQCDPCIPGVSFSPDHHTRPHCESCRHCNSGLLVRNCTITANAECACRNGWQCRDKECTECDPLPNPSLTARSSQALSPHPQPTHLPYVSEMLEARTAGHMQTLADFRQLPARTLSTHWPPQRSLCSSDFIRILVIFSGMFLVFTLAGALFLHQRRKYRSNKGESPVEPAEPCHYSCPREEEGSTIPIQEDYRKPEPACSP
# T2: CD27 protein (His-tagged, Sino Biological Inc. 10039-H08B1) (human, UniProt P26842 20-192)
# T2 construct: bought; coated onto ELISA plates; also called human CD27; recombinant protein; not shown: His tag
# T2 sequence (looked up): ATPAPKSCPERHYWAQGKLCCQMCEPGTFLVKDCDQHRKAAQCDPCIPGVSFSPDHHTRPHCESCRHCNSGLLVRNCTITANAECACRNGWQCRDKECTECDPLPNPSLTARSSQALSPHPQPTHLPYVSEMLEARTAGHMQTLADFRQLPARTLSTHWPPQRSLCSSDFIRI
# B1: P018.S.02.A.E06 (antibody, V domains shown)
# VH: QSLEESGGRLVTPGTPLTLTCTASGFSLSNYSMNWVRQAPGKGLEWIGIINMYGSTYYATWAKGRFTISKTSTTVDLKMTSLTTEDTATYFCARDAGGSTVPWYFDLWGPGTLVTVSS
# VL: AYDMTQTPASVSEPVGGTVTIKCQASESISDYLAWYQQKPGQRPKLLIYDASKLASGVPSRFSGSGSGTEFTLTISGVGSADAATYYCQQGYADSNVDNVFGGGTEVVVK
# notes: V regions on human Ig constant parts; also called AB27_34
# B2: P018.S.03.A.C05 (antibody, V domains shown)
# VH: QSLEESGGGLVQPGGTLTLTCKASGIDFSSSFYMCWVRQAPGKGLERIACTYNRDGSTYYASWAKGRFTISKTSSTTVTLQMASLTVADTATYFCARDDGYPGSGYVFNLWGPGTLVTVSS
# VL: DVVMTQTPASVEAAVGGTVTIKCQASQSVSSYLSWYQQKPGQRPKLLIYGASNLESGVPSRFKGSGSGTEFTLTISGVQSDDAATYYCQGGYYSSGADNNSFGGGTELVVK
# notes: V regions on human Ig constant parts; also called AB27_46
# B3: P018.S.04.A.A01 (antibody, V domains shown)
# VH: QEQLVESGGGLVQPEGSLTLTCTESGFSFSSNAVCWVRQAPGKGLEWIACIYVDSIGSTWYASWAKGRFTISKTSSTTVTLQMTSLTAADTATYFCARGDNIAYFMLWGPGTLVTVSS
# VL: DIVMTQTPASVEAAVGGTVTIRCQASESITSFLSWYQQKPGQPPKLLIYKISTLASGVPSRFKASGSGTEFTLTISDLESADAAAYYCQGYYYYSNVVYASNGFGGGTEVVVK
# notes: V regions on human Ig constant parts; also called AB27_64
# B4: P018.S.05.A.B02 (antibody, V domains shown)
# VH: QSLEESGGRLVTPGTPLTLTCKVSGFSLSSYDMIWVRQAPGKGLEWIGIVSTGGSAGYASWAKGRFTITKTSTTVDLKITSPTTEDTATYFCARIISGGRDLWGPGTLVTVSS
# VL: DIVMTQTPASVEAAVGGTVTIKCQASESISSRLAWYQQKPGQPPKLLIYSASTLAFGVSSRFKGSGSGTQFTLTISDLESADAATYYCQSYYYSSTASYASNNAFGGGTEVVVK
# notes: V regions on human Ig constant parts; also called AB27_83
# B5: P018.S.08.A.G02 (antibody, V domains shown)
# VH: QSVEESGGRLVTPGTPLTLTCTVSGFSLSTYAMSWVRQAPGKGLEWIGMNTRSGIIYYASWAKGRFTISKTSTTVHLKITSPTTEDTATYFCARDLYADVSGYYLGLWGPGTLVTVSS
# VL: AQVLTQTPSSVSAAVGGTVTINCQASQSLYNNKNLAWYQQKPGQPPKLLIYYASTLASGVSSRFKGSGSGTQFTLTISDLESDDAATYYCQGEFICSSADCVVFGGGTAVVVK
# notes: V regions on human Ig constant parts; also called AB27_141
# B6: P018.S.03.A.F04 (antibody, V domains shown)
# VH: QSVEESGGRLVTPGTPLTLTCTVSGFSLSSYAMGWVRQAPGKGLQWIGILYRNDAASYANWAKGRFTISKTSTTVDLTMPSLTTEDTATYFCVRGYVNDGYYNLWGQGTLVTVSS
# VL: AYDMTQTPASVEVAVGGTVTIKCQASESIGYRLAWYQQKPGQPPKLLIFDASDLASGVPSRFKGSGSGKHFTLTISGVQSADAATYYCQQDYSYSITDNCFGGGTEVVVS
# notes: V regions on human Ig constant parts; also called AB27_55
# B7: P018.S.01.A.E03 (antibody, V domains shown)
# VH: B6 VH
# VL: B6 VL with P40S, T97I, C100S, S110K
# notes: V regions on human Ig constant parts; also called AB27_15
# B8: P018.S.10.A.F01 (antibody, V domains shown)
# VH: QSLEESGGGLVQPEGSLTLTCTASGFSFSSSDYMCWVRQAPGKGLEWIACMYTGSVEHTYYANWAEGRFTISKTSSTTVTLQMTSLTAADTATYFCARSPTGYPDYGYGGFSLWGPGTLVTVSS
# VL: ALVMTQTPSSVSAAVGGTVTINCQASQNIYSNLAWYQQKSGQRPKLLIHGASNLESGVPSRFKGSGSGTEFTLTISDLESADAATYYCQSAYYSGGPDMAFGGGTEVVVK
# notes: V regions on human Ig constant parts; also called AB27_179
# B9: P018.S.10.A.F05 (antibody, V domains shown)
# VH: QSVEESGGRLVTPGTPLTLTCTVSGFSLSGYHMCWVRQAPGKGLQYIGIIGSNGVTYYASWAKSRSTITRNTNENTVTLKMTSLTTEDTATYFCARSSGWGARFNLWGQGTLVTVSS
# VL: AQVLTQTPASVSAAVGGTVTINCQASQSVYNDNELSWYQQKPGQPPKLLIYKASTLTSGVPLRFSGSGSGTQFTLTISDVQSDDAATYYCLGGGSTPSDSTFGGGTEVVVK
# notes: V regions on human Ig constant parts; also called AB27_181
# B10: P018.S.10.A.A06 (antibody, V domains shown)
# VH: B9 VH with V55N
# VL: B9 VL with A9S, V29I, T57A, D84V, S95M, S100T
# notes: V regions on human Ig constant parts; also called AB27_165
# B11: P018.S.10.A.G03 (antibody, V domains shown)
# VH: B9 VH with S27T, L28I, G30S, V55N
# VL: B9 VL with A9S
# notes: V regions on human Ig constant parts; also called AB27_182
# B12: P018.S.01.A.B03 (antibody, V domains shown)
# VH: QSLEESGGRLVTPGTPLTLTCTVSGFSLSSNAMSWVRQAPGEGLEWIGTIYTHGSSYYATWAKGRFTISKTSSTTVDLKMTSLTTEDTATYFCAGWAGGLSLWGPGTLVTVSS
# VL: DVVMTQTPASVSEPVGGTVTIKCQASEDIDNALAWYQQKPGQAPKILIYSASTLPSGVPSRFKGSGSGTQFTLTISDLESADAATYYCQSAYGGTYGDGFGGGTEVVVK
# notes: V regions on human Ig constant parts; also called AB27_4
# B13: P018.S.09.A.E06 (antibody, V domains shown)
# VH: QSVEESGGRLVTPGTPLTLTCTVSGFSLSSYGMIWVRQAPGKGLEWIAWSSSNDNTYYASWAKGRFTISKTSSTTVDLKMTSLTTEDTATYFCARNGVYSTGNYFDLWGQGTLVTVSS
# VL: AQVLTQTPSPVSAAVGGTVTINCQASQSVYNNNNLAWYQQKPGQPPKFLIYAASRLPSGVPPRFSGSGSGTQFTLTISDVQSDDAATYYCQGEFDCDSADCFAFGGGTEVVVK
# notes: V regions on human Ig constant parts; also called AB27_156
# B14: P018.S.05.A.A02 (antibody, V domains shown)
# VH: QSLEESGGRLVTPGTPLTLICTASGIDLSSYGMTWVRQAPGKGLEWIGIISTIGDTYYASWVKGRFTISKTSTTVDLKITSPTTEDTATYFCARYTNSGYAMMYYFNLWGQGTLVTVSS
# VL: DIVMTQTPASVEAAVGGTVTIKCQASQNIVNALAWYQQKLGQPPKLLIYVASYLASGVPSRFKGSGSGTEFTLTISDLESVDAATYYCQSYYYSSGTSYGQNAFGGGTEVVVK
# notes: V regions on human Ig constant parts; also called AB27_80
# B15: P018.S.05.A.A04 (antibody, V domains shown)
# VH: QEQLVESGGDLVKPGASLTLTCTASGIDFSSSYYMSWVRQAPGKGLEWIACIDTVDDYTYYASWAKGRFTISKTSSTTVSLQMTSLTAADTATYFCARERIDNNTDCFDLWGPGTLVTISS
# VL: AQVLTQTPSPVSAAVGGTVTISCQSSQSVVSKNRLAWYQQKPGQPPKLLIWLASKLASGVPSRFRGSGSGTQFTLTISGVQSDDAATYYCQGYYSGAIYAFGGGTDVVVK
# notes: V regions on human Ig constant parts; also called AB27_81
# B16: P018.S.10.A.C06 (antibody, V domains shown)
# VH: QSLEESGGRLVTPGTPLTLTCTVSGIDLNNNAMTWVRQAPGEGLEWIGIISTADTTTYASWTKGRFTISKTSTTVDLKITSPTTEDTATYFCARAAYFSYGYFNLWGQGTLVTVSS
# VL: DIVMTQTPASVEAAVGGTVTIKCQASQNIGNALAWYQQKPGQPPKLLIYGASTLASGVPSRFKGSGSGTEFTLTISDLESADATTYFCQSYVYSDGNVFGGGTEVVVK
# notes: V regions on human Ig constant parts; also called AB27_174
# B17: P018.S.06.A.E02 (antibody, V domains shown)
# VH: B16 VH with T57S
# VL: B16 VL with P40S
# notes: V regions on human Ig constant parts; also called AB27_105
# Target: T1, CD27 expressed on the cell surface …
# Test: cell-based or functional assay
# Note: test concentration or dose not given here.
Binder,"IL-8, cross-linked by F(ab')2 fragment [abs. corr.]",IL-8 [abs. corr.]
B1,1.29,0.308
B2,1.63,0.544
B3,1.47,0.176
B4,1.95,0.633
B5,2.48,0.598
B6,1.59,0.253
B7,1.22,0.436
B8,1.05,-0.011
B9,1.34,0.267
B10,1.12,-0.13
B11,1.3,-0.18
B12,1.7,0.06
B13,1.73,1.23
B14,1.53,0.212
B15,1.37,0.226
B16,1.18,0.28
B17,1.22,0.582

# Target: T1, CD27 expressed on the cell surface …
# Test: cellular binding assay, HT1080_CD27 cells
row,Binder,Cellular binding assay [RFU]
1,B1,331
2,B2,303
3,B3,297
4,B4,259
5,B5,315
6,B6,299
7,B7,335
8,B8,329
9,B9,335
10,B10,414
11,B11,386
12,B12,387
13,B13,307
14,B14,334
15,B15,369
16,B16,395
17,B17,357

# Target: T2, CD27 protein (His-tagged, Sino …)
# Test: ELISA on coated His-tagged CD27
row,Binder,ELISA [abs. corr.]
1,B1,3.32
2,B2,3.32
3,B3,3.32
4,B4,3.32
5,B5,3.32
6,B6,3.31
7,B7,3.3
8,B8,3.31
9,B9,3.49
10,B10,3.18
11,B11,3.31
12,B12,3.3
13,B13,3.54
14,B14,3.3
15,B15,3.3
16,B16,3.39
17,B17,3.3
